Measured values reported in US20190071500A1 (ORIONIS BIOSCIENCES, published 2019).
Positions count from the first letter of the chain named.

B1: R2HCD26 (VHH)
VHH: QVQLQESGGGLVQAGGSLRLSCAASGFTFDDYAIGWFRQAPGKEREGVSCIRVSDGSTYYADPVKGRFTISSDNAKNTVYLQMNSLKPEDAAVYYCAAGSLYTCVQSIVVVPARPYYDMDYWGKGTQVTVSS
notes: not shown: His tag (His-tagged VHHs); the vectors described carry His6 at the C-terminus; exact junction of the tested form not sta
B2: R3HCD27 (VHH)
VHH: QVQLQESGGGSVQPGGSLRLSCAASGFTFDDYAMSWVRQVPGKGLEWVSTINWNGGSAEYAEPVKGRFTISRDNAKNTVYLQMNSLKLEDTAVYYCAKDADLVWYNLSTGQGTQVTVSS
notes: as for B1
B3: R3HCD129 (VHH)
VHH: B2 VHH with S11L, S108R
notes: as for B1

Biological target: T1, His6-tagged extracellular domain of human CD8A (human, UniProt P01732 22-182)
T1 construct: extracellular domain; coated on the solid phase for panning and for the ELISA screening; also called Hiss-tagged extracellular domain of human CD8A; not shown: His tag
Assay: ELISA, crude periplasmic extracts on coated His-tagged extracellular domain of human CD8A
Method: Three consecutive rounds of panning of a VHH library were performed on solid-phase coated Hiss-tagged extracellular domain of human CD8A (200 μg/ml, 20 μg/well). The enrichment for antigen-specific phages was assessed after each round of panning by comparing the number of phagemid particles eluted from antigen-coated wells with the number of phagemid particles eluted from only-blocked wells (negative control wells). […] 285 colonies (95 & 190 from 2nd and 3rd rounds, respectively) were randomly selected and analyzed by ELISA for the presence of antigen-specific VHHs in their periplasmic extracts (ELISA using crude periplasmic extracts including soluble VHHs). The antigen used for the ELISA screening was the same as the one used for immunization and panning. Out of these 285 colonies, 64 colonies (3 and 61 from 2nd and 3rd rounds of panning, respectively) scored positive in this assay. Based on sequence data, the 64 positive colonies represented 16 different VHHs. The 16 different VHHs belong to 6 different CDR3 groups. Table 2 below provides a description of 3 clones representing the 3 different anti-human CD8A VHH genes. E. coli TG1 harboring recombinant phagemid pMECS containing anti-human CD8A VHH sequences was generated and stored at −80° C. The vector pMECS codes for ampicillin resistance.

T1 sequence (P01732 22-182): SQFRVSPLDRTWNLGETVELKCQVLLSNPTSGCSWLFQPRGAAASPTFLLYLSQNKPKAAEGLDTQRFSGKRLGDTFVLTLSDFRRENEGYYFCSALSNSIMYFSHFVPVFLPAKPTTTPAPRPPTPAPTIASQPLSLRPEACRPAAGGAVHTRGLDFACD

Binding result, binds:
B1
B2
B3
